# Laboratory results as given in patent publication US20200216522A1 (DENALI THERAPEUTICS, published 2020).
# Biological target: T1, full-length human Tau (Tau441; 2N4R), recombinant (human, UniProt P10636 1-758)
# T1 construct: made in E. coli, His6-Smt3 tag removed; biotinylated through amines for Octet and phage work; also called r-Tau; recombinant Tau
# Assay: SPR Biacore
# Experimental: IgG was purified with protein A affinity chromatography. The affinity of each hulC7 IgG variant for r-Tau was determined by surface plasmon resonance using a Biacore™ T200 instrument. Biacore™ Series S CM5 sensor chips were immobilized with monoclonal mouse anti-human IgG (Fc) antibody (Human antibody capture kit from GE Healthcare). Serial 3-fold dilutions of each hulC7 variant were injected at a flow rate of […]. Each sample was analyzed with 3-minute association and 10-minute dissociation. After each injection, the chip was regenerated using 3 M MgCl₂. Binding response was corrected by subtracting the RU from a flow cell capturing an irrelevant IgG at similar density. A 1:1 Languir model of simultaneous fitting of kₒₙ and koff was used for kinetics analysis.
# A further round of affinity maturation was performed by mutating certain amino acids in selected CDR-H1, CDR-L1, and CDR-L3 sequences from Table 9A, as well as the sequence of CDR-H2 (SEQ ID NO:23) of hulC7.v2. Sequence changes were identified in each CDR (Table 9B). Binding affinities were evaluated using Biacore™ (Table 10B).
# T1 sequence (P10636 other isoform, or with tags, fused parts or gaps limits assumed): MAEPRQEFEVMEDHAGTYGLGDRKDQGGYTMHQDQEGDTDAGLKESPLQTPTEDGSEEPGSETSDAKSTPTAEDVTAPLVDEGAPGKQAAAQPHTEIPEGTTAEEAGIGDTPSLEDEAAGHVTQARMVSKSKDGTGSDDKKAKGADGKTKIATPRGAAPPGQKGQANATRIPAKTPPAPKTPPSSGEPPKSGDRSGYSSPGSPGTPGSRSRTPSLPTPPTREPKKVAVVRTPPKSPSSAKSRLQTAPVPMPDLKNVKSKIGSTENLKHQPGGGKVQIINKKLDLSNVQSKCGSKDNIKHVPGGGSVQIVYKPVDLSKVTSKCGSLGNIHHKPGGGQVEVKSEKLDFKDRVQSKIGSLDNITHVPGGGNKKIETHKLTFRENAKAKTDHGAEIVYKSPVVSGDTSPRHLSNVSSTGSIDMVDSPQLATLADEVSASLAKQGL
Kd,koff,kon,Binder
3.79 nM,0.00176 s⁻¹,465000 M⁻¹ s⁻¹,"Clone with H2_5 (antibody, V domains shown, based on hu1C7.v2) VH: EVQLLESGGGLVQPGGSLRLSCAASGFTFSSYGMSWVRQAPGKGLEWVASISGDGGSYIHYASSVKGRFTISRDNSKNTLYLQMNSLRAEDTAVYYCARLPYWGQGTLVTVSS VL: DIVMTQSPDSLAVSLGERATINCKSSQSLLNSGNQKNYLTWYQQKPGQPPKLLIYWASTRESGVPDRFSGSGSGTDFTLTISSLQAEDVAVYYCQQYNSYPLTFGQGTKVEIKR"
0.51 nM,0.000391 s⁻¹,767000 M⁻¹ s⁻¹,"Clone with L1_3-8 (antibody, V domains shown, based on hu1C7.v2) VH: EVQLLESGGGLVQPGGSLRLSCAASGFTFSSYGMSWVRQAPGKGLEWVASISGDGGSYIHYADSVKGRFTISRDNSKNTLYLQMNSLRAEDTAVYYCARLPYWGQGTLVTVSS VL: DIVMTQSPDSLAVSLGERATINCKSSQSLHLSGTQKDYLVWYQQKPGQPPKLLIYWASTRESGVPDRFSGSGSGTDFTLTISSLQAEDVAVYYCQQYNSYPLTFGQGTKVEIK"
0.119 nM,0.000116 s⁻¹,982000 M⁻¹ s⁻¹,"Clone with L1_3, L3, and H1_HCv2 (antibody, V domains shown) VH: EVQLLESGGGLVQPGGSLRLSCAASGFTFSQVGMSWVRQAPGKGLEWVASISGDGGSYIHYADSVKGRFTISRDNSKNTLYLQMNSLRAEDTAVYYCARLPYWGQGTLVTVSS VL: DIVMTQSPDSLAVSLGERATINCKSSQSLHRSGTQKDYLVWYQQKPGQPPKLLIYWASTRESGVPDRFSGSGSGTDFTLTISSLQAEDVAVYYCQQYNSYPLTFGQGTKVEIK"
0.577 nM,0.000662 s⁻¹,1.15e+06 M⁻¹ s⁻¹,"Clone with L1_4 (antibody, V domains shown, based on hu1C7.v2) VH: EVQLLESGGGLVQPGGSLRLSCAASGFTFSSYGMSWVRQAPGKGLEWVASISGDGGSYIHYADSVKGRFTISRDNSKNTLYLQMNSLRAEDTAVYYCARLPYWGQGTLVTVSS VL: not shown"
0.349 nM,0.000379 s⁻¹,1.09e+06 M⁻¹ s⁻¹,"Clone with L1_3-6 (antibody, V domains shown, based on hu1C7.v2) VH: EVQLLESGGGLVQPGGSLRLSCAASGFTFSSYGMSWVRQAPGKGLEWVASISGDGGSYIHYADSVKGRFTISRDNSKNTLYLQMNSLRAEDTAVYYCARLPYWGQGTLVTVSS VL: DIVMTQSPDSLAVSLGERATINCKSSQSLHQSGTQKDYLVWYQQKPGQPPKLLIYWASTRESGVPDRFSGSGSGTDFTLTISSLQAEDVAVYYCQQYNSYPLTFGQGTKVEIK"
0.13 nM,0.000143 s⁻¹,1.1e+06 M⁻¹ s⁻¹,"Clone with L1_3-2 (antibody, V domains shown, based on hu1C7.v2) VH: EVQLLESGGGLVQPGGSLRLSCAASGFTFSSYGMSWVRQAPGKGLEWVASISGDGGSYIHYADSVKGRFTISRDNSKNTLYLQMNSLRAEDTAVYYCARLPYWGQGTLVTVSS VL: DIVMTQSPDSLAVSLGERATINCKSSQSLLRSGTQKDYLVWYQQKPGQPPKLLIYWASTRESGVPDRFSGSGSGTDFTLTISSLQAEDVAVYYCQQYNSYPLTFGQGTKVEIK"
1.39 nM,0.000885 s⁻¹,636000 M⁻¹ s⁻¹,"Clone with L1_5 (antibody, V domains shown, based on hu1C7.v2) VH: EVQLLESGGGLVQPGGSLRLSCAASGFTFSSYGMSWVRQAPGKGLEWVASISGDGGSYIHYADSVKGRFTISRDNSKNTLYLQMNSLRAEDTAVYYCARLPYWGQGTLVTVSS VL: DIVMTQSPDSLAVSLGERATINCKSSQSLLSSGNQKNYLTWYQQKPGQPPKLLIYWASTRESGVPDRFSGSGSGTDFTLTISSLQAEDVAVYYCQQYNSYPLTFGQGTKVEIKR"
3.79 nM,0.00175 s⁻¹,462000 M⁻¹ s⁻¹,"Clone with H2_6 (antibody, V domains shown, based on hu1C7.v2) VH: not shown VL: DIVMTQSPDSLAVSLGERATINCKSSQSLLNSGNQKNYLTWYQQKPGQPPKLLIYWASTRESGVPDRFSGSGSGTDFTLTISSLQAEDVAVYYCQQYNSYPLTFGQGTKVEIKR"
0.136 nM,0.000154 s⁻¹,1.13e+06 M⁻¹ s⁻¹,"Clone with L1_3-9 (antibody, V domains shown, based on hu1C7.v2) VH: EVQLLESGGGLVQPGGSLRLSCAASGFTFSSYGMSWVRQAPGKGLEWVASISGDGGSYIHYADSVKGRFTISRDNSKNTLYLQMNSLRAEDTAVYYCARLPYWGQGTLVTVSS VL: DIVMTQSPDSLAVSLGERATINCKSSQSLHRSGNQKDYLVWYQQKPGQPPKLLIYWASTRESGVPDRFSGSGSGTDFTLTISSLQAEDVAVYYCQQYNSYPLTFGQGTKVEIK"
0.651 nM,0.000719 s⁻¹,1.1e+06 M⁻¹ s⁻¹,"Clone with L1_7 (antibody, V domains shown, based on hu1C7.v2) VH: EVQLLESGGGLVQPGGSLRLSCAASGFTFSSYGMSWVRQAPGKGLEWVASISGDGGSYIHYADSVKGRFTISRDNSKNTLYLQMNSLRAEDTAVYYCARLPYWGQGTLVTVSS VL: DIVMTQSPDSLAVSLGERATINCKSSQSLLNAGNQKNYLTWYQQKPGQPPKLLIYWASTRESGVPDRFSGSGSGTDFTLTISSLQAEDVAVYYCQQYNSYPLTFGQGTKVEIKR"
0.206 nM,0.00031 s⁻¹,1.5e+06 M⁻¹ s⁻¹,"Clone with L1_3-4 (antibody, V domains shown, based on hu1C7.v2) VH: EVQLLESGGGLVQPGGSLRLSCAASGFTFSSYGMSWVRQAPGKGLEWVASISGDGGSYIHYADSVKGRFTISRDNSKNTLYLQMNSLRAEDTAVYYCARLPYWGQGTLVTVSS VL: DIVMTQSPDSLAVSLGERATINCKSSQSLHNSGTQKDYLVWYQQKPGQPPKLLIYWASTRESGVPDRFSGSGSGTDFTLTISSLQAEDVAVYYCQQYNSYPLTFGQGTKVEIK"
0.928 nM,0.000787 s⁻¹,848000 M⁻¹ s⁻¹,"Clone with L3_5 (antibody, V domains shown, based on hu1C7.v2) VH: EVQLLESGGGLVQPGGSLRLSCAASGFTFSSYGMSWVRQAPGKGLEWVASISGDGGSYIHYADSVKGRFTISRDNSKNTLYLQMNSLRAEDTAVYYCARLPYWGQGTLVTVSS VL: not shown"
0.665 nM,0.00078 s⁻¹,1.17e+06 M⁻¹ s⁻¹,"Clone with L1_6 (antibody, V domains shown, based on hu1C7.v2) VH: EVQLLESGGGLVQPGGSLRLSCAASGFTFSSYGMSWVRQAPGKGLEWVASISGDGGSYIHYADSVKGRFTISRDNSKNTLYLQMNSLRAEDTAVYYCARLPYWGQGTLVTVSS VL: DIVMTQSPDSLAVSLGERATINCKSSQSLLQSGNQKNYLTWYQQKPGQPPKLLIYWASTRESGVPDRFSGSGSGTDFTLTISSLQAEDVAVYYCQQYNSYPLTFGQGTKVEIKR"
0.275 nM,0.000308 s⁻¹,1.12e+06 M⁻¹ s⁻¹,"Clone with L1_3-7 (antibody, V domains shown, based on hu1C7.v2) VH: EVQLLESGGGLVQPGGSLRLSCAASGFTFSSYGMSWVRQAPGKGLEWVASISGDGGSYIHYADSVKGRFTISRDNSKNTLYLQMNSLRAEDTAVYYCARLPYWGQGTLVTVSS VL: DIVMTQSPDSLAVSLGERATINCKSSQSLHKSGTQKDYLVWYQQKPGQPPKLLIYWASTRESGVPDRFSGSGSGTDFTLTISSLQAEDVAVYYCQQYNSYPLTFGQGTKVEIK"
0.69 nM,0.00057 s⁻¹,826000 M⁻¹ s⁻¹,"Clone with L3_6 (antibody, V domains shown, based on hu1C7.v2) VH: EVQLLESGGGLVQPGGSLRLSCAASGFTFSSYGMSWVRQAPGKGLEWVASISGDGGSYIHYADSVKGRFTISRDNSKNTLYLQMNSLRAEDTAVYYCARLPYWGQGTLVTVSS VL: DIVMTQSPDSLAVSLGERATINCKSSQSLLNSGNQKNYLTWYQQKPGQPPKLLIYWASTRESGVPDRFSGSGSGTDFTLTISSLQAEDVAVYYCQQYSSYPLTFGQGTKVEIKR"
1.19 nM,0.000817 s⁻¹,685000 M⁻¹ s⁻¹,"Clone with L3_7 (antibody, V domains shown, based on hu1C7.v2) VH: EVQLLESGGGLVQPGGSLRLSCAASGFTFSSYGMSWVRQAPGKGLEWVASISGDGGSYIHYADSVKGRFTISRDNSKNTLYLQMNSLRAEDTAVYYCARLPYWGQGTLVTVSS VL: DIVMTQSPDSLAVSLGERATINCKSSQSLLNSGNQKNYLTWYQQKPGQPPKLLIYWASTRESGVPDRFSGSGSGTDFTLTISSLQAEDVAVYYCQQYNAYPLTFGQGTKVEIKR"
0.211 nM,0.000213 s⁻¹,1.01e+06 M⁻¹ s⁻¹,"Clone with L1_3-1 (antibody, V domains shown, based on hu1C7.v2) VH: EVQLLESGGGLVQPGGSLRLSCAASGFTFSSYGMSWVRQAPGKGLEWVASISGDGGSYIHYADSVKGRFTISRDNSKNTLYLQMNSLRAEDTAVYYCARLPYWGQGTLVTVSS VL: DIVMTQSPDSLAVSLGERATINCKSSQSLVRSGTQKDYLVWYQQKPGQPPKLLIYWASTRESGVPDRFSGSGSGTDFTLTISSLQAEDVAVYYCQQYNSYPLTFGQGTKVEIK"
0.419 nM,0.000442 s⁻¹,1.05e+06 M⁻¹ s⁻¹,"Clone with L1_3-5 (antibody, V domains shown, based on hu1C7.v2) VH: EVQLLESGGGLVQPGGSLRLSCAASGFTFSSYGMSWVRQAPGKGLEWVASISGDGGSYIHYADSVKGRFTISRDNSKNTLYLQMNSLRAEDTAVYYCARLPYWGQGTLVTVSS VL: DIVMTQSPDSLAVSLGERATINCKSSQSLHMSGTQKDYLVWYQQKPGQPPKLLIYWASTRESGVPDRFSGSGSGTDFTLTISSLQAEDVAVYYCQQYNSYPLTFGQGTKVEIK"
0.078 nM,0.000214 s⁻¹,2.72e+06 M⁻¹ s⁻¹,"Clone with L1_3-3 (antibody, V domains shown, based on hu1C7.v2) VH: EVQLLESGGGLVQPGGSLRLSCAASGFTFSSYGMSWVRQAPGKGLEWVASISGDGGSYIHYADSVKGRFTISRDNSKNTLYLQMNSLRAEDTAVYYCARLPYWGQGTLVTVSS VL: DIVMTQSPDSLAVSLGERATINCKSSQSLHYSGTQKDYLVWYQQKPGQPPKLLIYWASTRESGVPDRFSGSGSGTDFTLTISSLQAEDVAVYYCQQYNSYPLTFGQGTKVEIK"
